The values below come from US20060171935A1, “Protecting cell therapy for neurological disorders including Parkinson's disease” (priority 2005, published 2006).

The subject of one assay is DJ-1-deficient ES cells. Kind of assay: Rescue of DJ-1-deficient ES cells from H2O2, MTT viability. In kind it is cell-based, murine. Particulars: transient transfection, 10 μM H2O2 for 15 h. As for the experimental part: (A) DJ-1 cysteine-to-alanine mutants C106A, C53A, and a triple mutant that harbors mutations at all three cysteines in DJ-1 (C106A/C53A/C46A), as well as L166P, were tested for in vitro chaperone activity by CS aggregation suppression assay. (B) Self-association of DJ-1 cysteine mutants. Murine neuroblastoma CAD cells were transiently cotransfected with Flag-tagged human DJ-1 vectors (either WT or mutant) along with WT YFP-tagged human DJ-1. Lysates were immunoprecipitated with anti-Flag antibodies and probed by Western blotting with an antibody specific for human DJ-1. […] Lysates represent 20% of the input for the immunoprecipitate; Flag-DJ-1 migrates at 22 kDa, and YFP-DJ-1 migrates at 50 kDa. (C) DJ-1-deficient ES cells were transiently transfected with vector alone, WT DJ-1, or DJ-1 cysteine mutants, and exposed to 10 μM H2O2 for 15 h followed by MTT assay. The viability of the cells in the absence of drug treatment was not altered by the expression of WT or mutant DJ-1). Data are shown as the mean±SEM and were analyzed by ANOVA with Fisher's post-hoc test. *p<0.05.
To confirm that altered sensitivity to oxidative stress is a consequence of the loss of DJ-1, ‘rescue’ experiments by overexpressing wild-type or mutant human DJ-1 in ‘knockout’ ES cells were performed. Plasmids encoding human wild-type DJ-1, PD-associated L166P mutant DJ-1, or vector alone, were transiently transfected into DJ-1 deficient clones, and these were subsequently assayed for sensitivity to H2O2 using the MTT viability assay.
In Vivo Assays. ES cells plated in 96-well format (2.3×10^4 cells/well) were treated for 15 hours with H2O2 in ES media deficient in β-mercaptoethanol (Abeliovich et al. 2000). Cell viability (as a percent of untreated control) was determined by MTT assay in triplicate (Fezoui et al. 2000). Annexin V/Propidium Iodide (Molecular probes) staining was performed per the manufacturer's instructions. For dihydrorhodamine-123 staining (DHR, Molecular probes) (Walrand et al. 2003), cells were preincubated for 30 min with DHR (5 μM), washed with PBS, then treated with H2O2 in ES media deficient in β-mercaptoethanol for 15 min at 37° C. The FACS analysis was performed using a FACSTAR sorter (Becton Dickinson). Dopamine uptake assay was performed essentially as described (Farrer et al. 1998). Reported values represent specific uptake from which non-specific uptake, determined in the presence of mazindol, was subtracted, and normalized for protein content (BCA kit, Pierce).

In a further assay the target is T1, citrate synthase (CS) (Sus scrofa, UniProt P00889).
T1 construct: purchased Sigma
T1 sequence (P00889 28-464): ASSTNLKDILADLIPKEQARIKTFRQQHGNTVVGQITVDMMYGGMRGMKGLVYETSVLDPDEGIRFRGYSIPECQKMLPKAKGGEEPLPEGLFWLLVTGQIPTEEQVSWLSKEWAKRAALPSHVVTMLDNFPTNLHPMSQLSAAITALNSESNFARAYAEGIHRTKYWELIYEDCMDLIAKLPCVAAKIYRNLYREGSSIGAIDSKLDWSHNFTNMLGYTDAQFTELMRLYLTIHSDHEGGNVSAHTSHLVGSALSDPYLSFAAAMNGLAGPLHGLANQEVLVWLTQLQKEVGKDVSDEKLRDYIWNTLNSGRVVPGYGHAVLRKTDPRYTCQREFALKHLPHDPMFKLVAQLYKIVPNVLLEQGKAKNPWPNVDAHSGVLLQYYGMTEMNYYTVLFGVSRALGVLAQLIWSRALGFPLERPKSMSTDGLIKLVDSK
Kind of assay: Suppression of heat-induced aggregation of citrate synthase (chaperone assay). Format: biochemical. Particulars: 0.8 μM CS, 43° C. As for the experimental part:
To test the redox regulation of DJ-1, the inventors assayed chaperone activity in the CS aggregation assay in the presence or absence of the reducing agent DTT. […] (FIG. 22D). […] To further test whether redox regulation might govern DJ-1 chaperone activity, reactivation studies using reduced DJ-1 were performed. DTT-reduced DJ-1 was incubated with H2O2 (10 mM in aggregation buffer for 10 min at 4° C. followed by dialysis against aggregation buffer for 2 h), and subsequently chaperone activity was measured in the CS thermal aggregation assay. […] This was not an indirect effect of residual H2O2 on CS aggregation, as H2O2 treatment of CS increased aggregation (unpublished data).
CS aggregation was performed in 40 mM HEPES (pH 7.8), 20 mM potassium hydroxinde, 50 mM potassium chloride, and 10 mM ammonium sulfate, and monitored in a thermostat-controlled fluorescence spectrophotometer with excitation and emission wavelengths at 500 nm and slit widths at 2.5 nm. Insulin aggregation was performed as described (Giasson et al. 2000). CS, insulin, RNase A, and GST were obtained from Sigma; human Hsp27 was obtained from Stressgen.

Positions count from the first letter of the chain named. Names and notes keep the numbering of the source.

B1: C106A: DJ-1 cysteine-to-alanine mutant at cysteine 106 (protein, UniProt Q99497 1-189, looked up, variant C106A)
chain: MASKRALVILAKGAEEMETVIPVDVMRRAGIKVTVAGLAGKDPVQCSRDVVICPDASLEDAKKEGPYDVVVLPGGNLGAQNLSESAAVKEILKEQENRKGLIAAIAAGPTALLAHEIGFGSKVTTHPLAKDKMMNGGHYTYSENRVEKDGLILTSRGPGTSFEFALAIVEALNGKEVAAQVKAPLVLKD
Consider B1, for which the “viability of DJ-1 knockout cells in the presence of H2O2” value with DJ-1-deficient ES cells is “robustly rescued”. Moreover, the “suppression of heat-induced aggregation of CS (chaperone activity)” value with citrate synthase (CS) is on record as “does not alter the basal activity”.

B2: C106A/C53A/C46A: triple mutant that harbors mutations at all three cysteines in DJ-1 (protein, UniProt Q99497 1-189, looked up, variant C106A C53A C46A)
chain: B1 chain with C46A, C53A
As for B2, the “viability of DJ-1 knockout cells in the presence of H2O2” value in the assay on DJ-1-deficient ES cells is “failed to protect”. In the assay with citrate synthase (CS), the “suppression of heat-induced aggregation of CS (chaperone activity)” value is “loss of chaperone function”.
